Measurements as given in publication PMC3264700 (Journal of Molecular and Cellular Cardiology, 2011).
Values joined by “and” are separate entries in the source; they are usually repeats but may differ in a detail not shown here. Equal values may be shown once. Read-outs that look alike come from different tables or passages of the source.

B1: adiponectin, endogenous in human coronary artery VSMC (hCASMC) (natural protein, human (endogenous in hCASMC), UniProt Q15848 19-244, looked up)
chain: ETTTQGPGVLLPLPKGACTGWMAGIPGHPGHNGAPGRDGRDGTPGEKGEKGDPGLIGPKGDIGETGVPGAEGPRGFPGIQGRKGEPGEGAYVYRSAFSVGLETYVTIPNMPIRFTKIFYNQQNHYDGSTGKFHCNIPGLYYFAYHITVYMKDVKVSLFKKDKAMLFTYDQYQENNVDQASGSVLLHLEVGDQVWLQVYGEGERNGLYADNDNDSTFTGFLLYHDTN
B2: adiponectin secreted by wild type mouse aortic VSMC (natural protein, UniProt Q60994 18-247, looked up)
chain: EDDVTTTEELAPALVPPPKGTCAGWMAGIPGHPGHNGTPGRDGRDGTPGEKGEKGDAGLLGPKGETGDVGMTGAEGPRGFPGTPGRKGEPGEAAYVYRSAFSVGLETRVTVPNVPIRFTKIFYNQQNHYDGSTGKFYCNIPGLYYFSYHITVYMKDVKVSLFKKDKAVLFTYDQYQEKNVDQASGSVLLHLEVGDQVWLQVYGDGDHNGLYADNVNDSTFTGFLLYHDTN

Assays:
native gel or EMSA [1] = target: the molecule itself; experiment: native gel or EMSA
native gel or EMSA [2] = target: the molecule itself; experiment: native gel or EMSA; remark: listed apart in the source

Row | Protein | stoichiometry N (native gel or EMSA [1]) | stoichiometry N (native gel or EMSA [2])
1 | B1 | 2 and 3 and 6 | –
2 | B2 | – | 3
